This passage reports reduction of binding to aggregates generated in the presence of 1 mM As(III), against aggregates generated without As(III) results from PMC9723941.

In this experiment the target is GFPuv (heat-aggregated). Kind of experiment: BLI; aggregated GFPuv as the sensor-bound substrate; Ssa1 and Ydj1 in solution; As(III) at the aggregation step (Fig. S3A).

Chain of Ssa1 (P10591 whole entry): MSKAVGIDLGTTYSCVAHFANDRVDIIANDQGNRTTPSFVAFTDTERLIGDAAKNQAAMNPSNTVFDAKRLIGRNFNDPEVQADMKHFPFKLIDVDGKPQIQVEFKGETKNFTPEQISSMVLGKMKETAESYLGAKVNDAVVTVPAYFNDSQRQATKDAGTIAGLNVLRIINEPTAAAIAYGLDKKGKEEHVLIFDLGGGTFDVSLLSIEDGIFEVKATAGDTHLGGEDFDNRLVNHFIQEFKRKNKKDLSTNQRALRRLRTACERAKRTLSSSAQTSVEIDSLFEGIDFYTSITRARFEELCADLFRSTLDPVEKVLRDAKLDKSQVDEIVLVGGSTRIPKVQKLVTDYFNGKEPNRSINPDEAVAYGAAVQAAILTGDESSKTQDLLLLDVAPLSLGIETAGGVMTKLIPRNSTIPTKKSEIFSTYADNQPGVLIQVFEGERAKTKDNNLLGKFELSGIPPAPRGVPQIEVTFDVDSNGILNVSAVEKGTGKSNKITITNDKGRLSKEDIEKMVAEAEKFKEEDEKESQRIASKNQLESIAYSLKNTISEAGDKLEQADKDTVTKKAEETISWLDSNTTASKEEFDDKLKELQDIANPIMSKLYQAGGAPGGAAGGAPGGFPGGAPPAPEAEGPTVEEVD
Chain of Ydj1 (P25491 whole entry): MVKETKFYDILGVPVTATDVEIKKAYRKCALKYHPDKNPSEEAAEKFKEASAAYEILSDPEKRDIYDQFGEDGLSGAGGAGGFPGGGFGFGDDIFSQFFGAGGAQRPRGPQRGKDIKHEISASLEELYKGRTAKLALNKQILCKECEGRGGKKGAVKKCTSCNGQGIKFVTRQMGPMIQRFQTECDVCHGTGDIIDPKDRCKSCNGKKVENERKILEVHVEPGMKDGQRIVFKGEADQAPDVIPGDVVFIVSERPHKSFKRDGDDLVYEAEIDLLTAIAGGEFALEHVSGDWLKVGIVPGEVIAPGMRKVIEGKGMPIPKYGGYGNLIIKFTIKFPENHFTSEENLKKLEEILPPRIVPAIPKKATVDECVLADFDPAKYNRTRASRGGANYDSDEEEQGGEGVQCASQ

Regarding “Ydj1 (from UniProt P25491 1-409) (natural protein)”, the reduction of binding to aggregates generated in the presence of 1 mM As(III), against aggregates generated without As(III) was determined as 30%. Turning to “Ssa1 (from UniProt P10591 1-642) (natural protein)”, the reduction of binding to aggregates generated in the presence of 1 mM As(III), against aggregates generated without As(III) turned out to be 30%.
